Assay in all cases: SPR
Holding throughout (settings): both partners purified

Test [1] has as its target T1, factor H binding protein (fHbp) variant 1.1 (Neisseria meningitidis MC58, fHbp v1.1, strain).
T1 construct: also called fHbp v1.1; fHbp v1; source: E. coli BL21(DE3), purified (Ni-NTA; SEC when necessary)
T1 chain: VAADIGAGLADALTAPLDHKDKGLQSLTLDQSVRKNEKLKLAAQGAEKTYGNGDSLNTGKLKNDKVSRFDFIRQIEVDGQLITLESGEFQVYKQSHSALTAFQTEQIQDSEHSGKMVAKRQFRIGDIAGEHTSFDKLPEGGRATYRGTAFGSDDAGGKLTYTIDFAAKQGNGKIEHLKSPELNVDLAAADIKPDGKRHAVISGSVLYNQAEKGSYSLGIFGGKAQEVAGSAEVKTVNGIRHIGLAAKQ

The target in test [2] is T2, factor H binding protein (fHbp) variant 3.28 (Neisseria meningitidis M1239, fHbp v3.28, UniProt Q19KF7, strain).
T2 construct: also called fHbp v3.28; fHbp v3; source: E. coli BL21(DE3), purified (Ni-NTA; SEC when necessary)

The target in test [3] is T3, factor H binding protein (fHbp) variant 2.16 (Neisseria meningitidis 961-5945, UniProt Q6VS19, strain).
T3 construct: also called fHbp v2.16; fHbp v2; source: E. coli BL21(DE3), purified (Ni-NTA; SEC when necessary)

The target in test [4] is T4, factor H binding protein (fHbp) variant 1.1, recombinant (Neisseria meningitidis MC58, fHbp v1.1).
T4 construct: also called fHbp v1.1; fHbp v1; source: E. coli BL21(DE3), purified (Ni-NTA, SEC when necessary); not shown: His6, C-terminal, kept
T4 chain: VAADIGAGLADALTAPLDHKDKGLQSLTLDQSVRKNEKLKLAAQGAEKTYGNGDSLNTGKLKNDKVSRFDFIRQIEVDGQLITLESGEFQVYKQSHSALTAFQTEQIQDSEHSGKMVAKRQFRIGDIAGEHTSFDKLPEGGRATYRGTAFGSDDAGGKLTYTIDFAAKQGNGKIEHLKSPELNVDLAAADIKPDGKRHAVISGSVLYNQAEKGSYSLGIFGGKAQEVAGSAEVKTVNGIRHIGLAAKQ

Test [5] addresses T5, factor H binding protein (fHbp) variant 3.28, recombinant (Neisseria meningitidis M1239, fHbp v3.28, UniProt Q19KF7, strain).
T5 construct: also called fHbp v3.28; fHbp v3; source: E. coli BL21(DE3), purified (Ni-NTA, SEC when necessary)

B1: human anti-fHbp mAb 4F9 (antibody, V domains shown)
VH: QVQLVQSGGGLVKPGGSLRLSCAASGFPFSSYYMSWIRQAPGKGLEWVSDINNSGNVKEYADFVKGRLTISRDNVKNSMYLHMNSLRVEDTAVYYCARNRGRFDVWGQGTLVTVSA
VL: EIVMTQSPGTLSLSPGETATLSCRASQMISSPFLAWYQQRRGQAPRLLIYGASTRATDTPDRFRGSGSGTDFILTISRLEPEDFAVYYCQHYDDSPFTFGQGTKLEIK
notes: source: Expi293, transient transfection, purified (protein G Sepharose)
Turning to B1, the koff in test [1] came to 0.00251 s⁻¹; in test [2], 0.00095 s⁻¹; in test [3] it was 3.3e-05 s⁻¹. The kon in test [1] amounted to 3.29e+07 M⁻¹ s⁻¹; in test [2] it was 380000 M⁻¹ s⁻¹; in test [3] it was 1.16e+06 M⁻¹ s⁻¹.

B2: human anti-fHbp mAb 3G7 (antibody, V domains shown)
VH: EVQLLQSGGGLVKPGGSLRLSCAASGFPFSSYYMSWIRQAPGKGLEWVSDINNSGNVKEYADFVKGRLTISRDNVKNSMYLHMNSLRVEDTAVYYCARNRGRFDVWGQGTLVTVSA
VL: EIVLTQSPGTLSLSPGETATLSCRASQMISSPFLAWYQQRRGQAPRLLIYGASTRATDTPDRFRGSGSGTDFILTISRLEPEDFAVYYCQYYDDSPFTFGQGTKLEIK
notes: as for B1
In the case of B2, the koff in test [1] is 0.000311 s⁻¹; in test [2], 0.000176 s⁻¹; in test [3], 3.89e-05 s⁻¹. In addition, the on-rate constant (kon) in test [1] came to 903000 M⁻¹ s⁻¹; in test [2], 258000 ± 0.01 M⁻¹ s⁻¹; in test [3] it was 741000 M⁻¹ s⁻¹.

B3: human anti-fHbp mAb 4B3 (antibody, V domains shown)
VH: QVQLVQSGGGLVKPGGSLRLSCAASGFPFSSYYMSWIRQAPGKGLEWVSDINNSGNVKEYADFVKGRLTISRDNVKNSMYLHMNSLRVEDTAVYYCARNRGRFDVWGQGTLVTVSA
VL: EIVMTQSPGTLSLSPGETATLSCRASQMISSPFLAWYQQRRGQAPRLLIYGASTRATDTPDRFRGSGSGTDFILTISRLEPEDFAVYYCQYYDDSPFTFGQGTKLEIK
notes: as for B1
Regarding B3, the koff came to 0.000217 s⁻¹ in test [1], 0.0002 s⁻¹ in test [2] and 7.98e-05 s⁻¹ in test [3]. In addition, the kon in test [1] came to 661000 M⁻¹ s⁻¹; in test [2], 315000 M⁻¹ s⁻¹; in test [3], 2.73e+06 M⁻¹ s⁻¹.

B4: human anti-fHbp mAb 1D1 (antibody, V domains shown)
VH: QVQLVGSGGGLVKPGGSLRLSCAASGFTFSSYTMNWVRQAPGKGLEWVSSISSSSGYIYYADSLKGRFTISRDDAKNSLFLQMNSLRAEDTAVYFCARDKVLPAPPGFYGLDVWGPGTTVTVSS
VL: QSVVTQPPSVSAAPGQKVTISCSGSSSNIEDNFVSWYQQLPGTAPKLLIYDNNQRPSGIPDRFSGSKSGTSATLGITGLQTGDEADYYCATWDNSLSARVFGGGTKLTVL
notes: as for B1
Regarding B4, the koff worked out at 0.00154 s⁻¹ in test [1], 0.000642 s⁻¹ in test [2] and 0.00264 s⁻¹ in test [3]. Further, the kon was 1.81e+06 M⁻¹ s⁻¹ in test [1], 371000 M⁻¹ s⁻¹ in test [2] and 450000 M⁻¹ s⁻¹ in test [3].

B5: human anti-fHbp mAb 3F1 (antibody, V domains shown)
VH: EVHLVESGGGLVKPGGSLRLSCAASGFTFSSYTMNWVRQAPGKGLEWVSSISSSSGYIYYADSLKGRFTISRDNAKNSLFLQMNSLRAEDTAVYFCARDKVLPAPPGFYGLDVWGPGTTVTVSS
VL: QSVVTQPPSVSAAPGQKVTISCSGSSSNIEDNFVSWYQQLPGTAPKLLIYDNNQRPSGIPDRFSGSKSGTSATLGITGLQTGDEADYYCATWDNSLSARVFGGGTKLTVL
notes: as for B1
For the molecule B5, the koff turned out to be 0.000917 s⁻¹ in test [1], 0.00063 s⁻¹ in test [2] and 0.00478 s⁻¹ in test [3]. The kon in test [1] is 885000 M⁻¹ s⁻¹; in test [2] it was 340000 M⁻¹ s⁻¹; in test [3] it was 382000 M⁻¹ s⁻¹.

B6: human anti-fHbp mAb 5F12 (antibody, V domains shown)
VH: EVQLVESGGDLVKPGGSLRLSCAASGFTFSNYTMNWVRQAPGKGLEWVSSITSSSSFKYYADSVKGRFTISRDNAKNSVFLQMNSLRAEDTAIYYCARRIDSSDQDWFYYYGMDVWGLGTTVTVSS
VL: QSVLTQPPSVSAAPGQRVTISCSGSSSNIGDNYISWYQQLPGTAPKLLIYDNDQRPSGTPDRFSASKSGTSATLGVTGLQTGDEADYYCGTWDSSLNAPVFGSGTKVTVL
notes: as for B1
As to B6, the results for the koff in test [1], in test [2] and in test [3] were 0.000846 s⁻¹, 0.00613 s⁻¹ and 0.00188 s⁻¹, respectively. Also, the kon in test [1] came to 854000 M⁻¹ s⁻¹; in test [2], 350000 M⁻¹ s⁻¹; in test [3] it was 690000 M⁻¹ s⁻¹.

B7: human anti-fHbp mAb 3B7 (antibody, V domains shown)
VH: EVQLVQSGAEVKKPGSSVKVSCKASGDTFSNYPISWVRQAPGQGLEWMGGIIPIFGTANYAQKFQGRVTITADESTSTPYMELSSLRSEDTAVYYCARGDTAMAPFDYWGQGTLVTVSS
VL: SYVLTQPPSVSVAPGKTARITCGGNSIGSKSVHWYQQKPGQAPVLVIYYDSDRPSGVPERISGSNSGNTATLTISRVEAGDEADYYCQVWDSSSDSWVFGGGTKLTVL
notes: as for B1
For B7, the koff in test [1] stood at 0.00442 s⁻¹; in test [2], 0.00083 s⁻¹; in test [3] it was 7.13e-06 s⁻¹. Also, the kon in test [1] was 1.71e+06 M⁻¹ s⁻¹; in test [2], 382000 M⁻¹ s⁻¹; in test [3], 1.32e+06 M⁻¹ s⁻¹.

B8: human anti-fHbp mAb 2C8 (antibody, V domains shown)
VH: QVQLVQSGAEVKKPGSSVKVSCKASGGTVINYPISWVRQVPGQGLEWMGRLVPLFGTPNYGQKFQGRITITADKSTSAAYMELIGLKSEDTAVYYCARGDTAMAPFDYWGHGTLVTVSS
VL: QLVLTQPPSVSVAPGKTATITCGGNNVGGKTVHWYQQKPGQAPVLVMSYDSDRPSGIPERFSGSNSGNTATLTISRVEAEDEADYYCQVWHGNDDHWVFGGGTKLTVL
notes: as for B1
Turning to B8, the koff was found to be 0.000388 s⁻¹ in test [1], 0.0002 s⁻¹ in test [2] and 0.000689 s⁻¹ in test [3]. For the same molecule, the kon in test [1] is 1.16e+06 M⁻¹ s⁻¹; in test [2], 430000 M⁻¹ s⁻¹; in test [3], 1.31e+07 M⁻¹ s⁻¹.

B9: human anti-fHbp mAb 1E10 (antibody, V domains shown)
VH: QVQLVESGGDLVKPGGSLRLSCVASGFTFSSYTMNWVRQAPGKGLEWVSSITSSSSFTYYADSVKGRFIISRDNAKNSLSLQMNNLRVEDTATYYCARRKDSSDYDWYYYYGMDVWGLGTTVTVSS
VL: QSVVTQPPSVSAAPGQKVTISCSGSSSNIGDNYMSWYQQIPGTAPKLLIFDNDQRPSGIPDRFSASKSGTSATLDITGFQTGDEADYYCGTWDSGLSAPVFGGGTKLTVL
notes: as for B1
Consider B9, for which the koff came out at 0.000657 s⁻¹ in test [1], 0.000495 s⁻¹ in test [2] and 0.00079 s⁻¹ in test [3]. The kon was 427000 M⁻¹ s⁻¹ in test [1], 390000 M⁻¹ s⁻¹ in test [2] and 630000 M⁻¹ s⁻¹ in test [3].

B10: human anti-fHbp mAb 2G1 (antibody, V domains shown)
VH: QVQLVESGGDLVKPGGSLRLSCVASGFTFSSYTMNWVRQAPGKGLEWVSSITSSSSFTYYADSVKGRFIISRDNAKNSLSLQMNNLRVEDTATYYCARRKDSSDYDWYYYYGMDVWGLGTTVTVSS
VL: QSVLTQPPSVSAAPGQKVTISCSGSSSNIGDNYMSWYQQIPGTAPKLLIFDNDQRPSGIPDRFSASKSGTSATLDITGFQTGDEADYYCGTWDSGLSAPVFGGGTKLTVL
notes: as for B1
B10: the koff came to 0.000584 s⁻¹ in test [2] and 0.00045 s⁻¹ in test [3]. In addition, the association rate constant (kon) in test [2] is 332000 M⁻¹ s⁻¹; in test [3], 270000 M⁻¹ s⁻¹.

B11: human anti-fHbp mAb 4B10 (antibody, V domains shown)
VH: EVQLVESGGGLVKPGGSLRLSCAASGFAFSTYSLHWVRQAPGKGLEWVSAITSSGSFLYYADSLKGRFTVSRDNAKNSLFLQMNSLRAGDTAVYYCARALQVEDGFPMFSGLDVWGQGTTVTVSS
VL: QTVVTQPPSVSEAPRQRVAISCSGSSSNIGDNSVSWYQQLPGKAPKLLIYDDDLLPSGVSDRFSASKSGTSASLAISGLQSEDEAEYYCAAWDDSLKGVVFGGGTKLTVL
notes: IgG1; source: Expi293, transient transfection, purified (protein G Sepharose)
B11: the Kd in test [4] was 0.296 nM; in test [5], 1.67 nM.

B12: human anti-fHbp mAb 4B10 (antibody, V domains shown)
VH: EVQLVESGGGLVKPGGSLRLSCAASGFAFSTYSLHWVRQAPGKGLEWVSAITSSGSFLYYADSLKGRFTVSRDNAKNSLFLQMNSLRAGDTAVYYCARALQVEDGFPMFSGLDVWGQGTTVTVSS
VL: QTVVTQPPSVSEAPRQRVAISCSGSSSNIGDNSVSWYQQLPGKAPKLLIYDDDLLPSGVSDRFSASKSGTSASLAISGLQSEDEAEYYCAAWDDSLKGVVFGGGTKLTVL
notes: as for B1
As to B12, in test [1], the koff turned out to be 0.0025 s⁻¹ and the kon is 7.7e+06 M⁻¹ s⁻¹. In test [2], the koff was determined as 0.000473 s⁻¹ and the kon turned out to be 284000 M⁻¹ s⁻¹. In test [3], this molecule returned a Kd of 0.0451 nM, a koff of 0.000706 s⁻¹ and a kon of 1.57e+07 M⁻¹ s⁻¹.

B13: human anti-fHbp mAb 5C6 (antibody, V domains shown)
VH: EVQLLESGGGLVQPGGSLRLSCAASGFTFSSYAMSWVRQTPGKGLEWVSAISGSGGSTYYADSVQGRFTISRDNSKNTLYLQINSLRAEDTAVYYCAKDPGFVLSSGWYYFDYWGQGTLVTVSS
VL: not shown
notes: as for B1
On to B13, for which the koff stood at 0.000454 s⁻¹ in test [1], 0.00071 s⁻¹ in test [2] and 0.000345 s⁻¹ in test [3]. Further, the values for the kon in test [1], in test [2] and in test [3] were 420000 M⁻¹ s⁻¹, 350000 M⁻¹ s⁻¹ and 204000 M⁻¹ s⁻¹, respectively.

In general, koff refers to the rate constant with which the complex falls apart. A lower koff goes with slow dissociation. As a reminder, the kon is a measure of how fast the partners come together. Read a high kon as faster complex formation. For orientation: Kd means the equilibrium constant for the complex coming apart.

Source of the values: publication PMC7556464, “4CMenB vaccine induces elite cross-protective human antibodies that compete with human factor H for binding to meningococcal fHbp” (PLoS Pathogens, 2020).
